For assay [1], the target named is T1, SARS-CoV-2 full length spike protein, V483A mutant (SARS-CoV-2, UniProt P0DTC2 14-1273).
For assay [2], the target named is T2, SARS-CoV-2 full length spike protein, V367F mutant (SARS-CoV-2, UniProt P0DTC2 14-1273).
T2 construct: also called SARS-CoV-2 V367F mutant
The experiment in a line: flow cytometry, CHO cells expressing full-length spike V367F.

The target in assay [3] is T1, SARS-CoV-2 full length spike protein, …. The assay is described as follows: flow cytometry, CHO cells expressing full-length spike V483A.
Assay [4] has as its target SARS-CoV-2 full length spike protein, D614G mutant (SARS-CoV-2, UniProt P0DTC2 14-1273). The assay is described as follows: flow cytometry, CHO cells expressing full-length spike D614G.
Assay [5] addresses SARS-CoV-2 full length spike protein, D614G mutant, expressed on CHO cells (SARS-CoV-2, UniProt P0DTC2 14-1273). The experiment in a line: flow cytometry on CHO cells expressing spike D614G.
For assay [6], the target named is T3, SARS-CoV-2 full length spike protein, V483A mutant, expressed on CHO cells (SARS-CoV-2, UniProt P0DTC2 14-1273).
Assay [7] has as its target T3, SARS-CoV-2 full length spike protein, …. The experiment in a line: flow cytometry on CHO cells expressing spike V483A.
In assay [8] the target is T4, SARS-CoV-2 full length spike protein, V367F mutant, expressed on CHO cells (SARS-CoV-2, UniProt P0DTC2 14-1273).
T4 construct: also called SARS-CoV-2 V367F mutant
The experiment in a line: flow cytometry on CHO cells expressing spike V367F.

Assay [9] addresses T5, SARS-CoV-2 full length spike protein, V483A mutant (SARS-CoV-2, UniProt P0DTC2 14-1273).
T5 construct: also called SARS-CoV-2 V483A mutant
The assay is described as follows: flow cytometry, CHO cells expressing full-length spike V483A. This is another data set of the same source.

In assay [10] the target is T6, SARS-CoV-2 full length spike protein, D614G mutant (SARS-CoV-2, UniProt P0DTC2 14-1273).
T6 construct: also called SARS-CoV-2 D641G mutant
The assay is described as follows: flow cytometry, CHO cells expressing full-length spike D614G (printed D641G).

The target in assay [11] is T5, SARS-CoV-2 full length spike protein, …. The source holds these as a separate data set.
For assay [12], the target named is T7, SARS-CoV-2 full length spike protein, V367F mutant (SARS-CoV-2, UniProt P0DTC2 14-1273).
T7 construct: also called SARS-CoV-2 V367F mutant
The experiment in a line: flow cytometry, CHO cells expressing full-length spike V367F. This is another data set of the same source.

Assay [13] deals with SARS-CoV-2 full length spike protein, D614G mutant (SARS-CoV-2, UniProt P0DTC2 14-1273).
Assay [14] addresses SARS-CoV-2 full length spike protein, V367F mutant (SARS-CoV-2, UniProt P0DTC2 14-1273).

B1: antibody 450 (antibody, V domains shown)
VH: EVQLVESGGGLVQPGGSLRLSCAASEFTFSSYWMSWVRQAPGKGLEWVANIKQDGSEKYYVDSVKGRFTISRDNAKNSLYLQMNSLRAEDTAVYYCARVGEYSGYDLFFDYWGQGTLVTVSS
VL: NFMLTQPHSVSESPGKTVTISYTGSSGSIASNYVQWYQQRPGSAPTTVIYEDNQRPSGVPDRFSGSIDSSSNSASLTISGLKTEDEADYYCQSYDSSNQGVFGGGTKLTVL
As for B1, the “median fluorescence fold over isotype control” value in assay [1] worked out at 1.27 fold over isotype. Besides, the binding result in assay [2], in [3] and in assay [4] was “no binding” each time.

B2: antibody 377 (antibody, V domains shown)
VH: EVQLVESGGGLVKPGGSLRLSCATSGFTFRTYSMNWVRQAPGKGLEWVSSITTSRNYIYYADSVRGRFTISGDNANNSLYLQMNSLRAEDTAVYYCARVRFVRDTRKPYYFDFWGQGTLVTVSS
VL: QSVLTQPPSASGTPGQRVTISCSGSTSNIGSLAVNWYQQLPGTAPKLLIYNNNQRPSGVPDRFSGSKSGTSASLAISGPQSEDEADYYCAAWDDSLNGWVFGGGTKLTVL
With B2, the binding result in [5], in [7] and in assay [8] was “no binding” in each case. The “median fluorescence fold over isotype control” value in assay [6] turned out to be 1.09 fold over isotype.

B3: antibody 432 (antibody, V domains shown)
VH: QVQLQESGPGLVKPSQTLSLTCTVSGGSISSGGYYWNWIRQHPGKGLEWIGYIYDSGSTYYNPSLKSRLTLSIDTSQNQFSLRRTSVTAADTAVYYCARGRQYDYDRTGLQYYFDYWGQGTLVTVSS
VL: EIVLTQSPGTLSLSPGERATLSCRASQSFSSSYLAWYQQKPGQAPRLLIYGASSRATGIPDRFSGSGSGTDFTLTISRLEPEDFAVYYCQQYGTSSLTFGGGTKVEIK
Take B3: the binding result in assay [2] and in assay [3] was “no binding” in each case.

B4: antibody 290 (antibody, V domains shown)
VH: QVHLVQSGAEVKKPGASVKVSCAASGYTFNNYGVSWVRQAPGQGLEWMGWISASNGNTKYAQNLQGRVTMTTDTSTSTAYMELRSLRSDDTAVYYCARDLVGPTAPNYYYGMDVWGQGTAVTVSS
VL: QSVLTQPPSVSGAPGQRVTISCTGSSSSIGAGYDVHWYQQLPGTAPKLLIYANSNRPSGVPDRLSGSKSGTSASLAITGLQAEDEADYYCQSYDSSLSGYVFGTGTKVTVL
As to B4, in assay [9], the binding result is on record as “no binding”.

B5: antibody 380 (antibody, V domains shown)
VH: QVQLVESGGGVVQPGRSLRLSCAASGFTLKNYGMHWVRQAPGKGLEWVIVLSFDGSDEYKADSVRGRFTVSRDNSKNTLFLQMNSLRPDDTAVYYCAREQPTMIEGGRGPFDIWGQGTMVTVSS
VL: EVVMTQSPATLSVSPGDRATLSCRASQGVNSNLAWYQQKPGQAPRLLIYAASTRATGIPARFSASGSGTHFTLTISSLQSEDFAVYYCLQYNNWPPWTFGQGTKLEIK
Regarding B5, the binding result in assay [7] was “no binding”.

B6: antibody 296 (antibody, V domains shown)
VH: EVQLVESGGGLVQPGGSLRLSCAGSGFTLSNYWMTWVRQAPGKGLEWVANINQDASRKYYGDSVKGRFSVSRDNAKNSLYLQMNSLTAEDTGFYYCVREELPSTPGSTWGQGTLVTVSS
VL: QSALTQPASVSGSPGQSITISCTGTSSDIGGYNHVSWYQQHPGKAPKLMIYGVSNRPSGVSDRFSGSKSDNTASLTISGLQAEDEADYYCSSPTSRGNKVFGTGTKVTVL
As for B6, the binding result in [10] and in assay [12] was “no binding” in each case. Moreover, the “median fluorescence intensity, fold over isotype control” value in assay [11] was determined as 1.27 fold over isotype.

B7: antibody 585 (antibody, V domains shown)
VH: QVQLVESGGGVVQPGRSLRLSCAASGFTFATYAMHWVRQAPGKGLEWVALISHDGSNKHYADSVKGRFTISRDNSKKTLYLQMNSLRAEGTAIYYCARESLEAAAPPFDYWGQGTLVTVSS
VL: SYELTQPPSVSVSPGQTATIICSGDKLGEKYASWYQQKPGQSPALVIYQDRKRPSGIPERFSGSNSGNTATLTISGTQAMDEADYYCQAWDSSNSVVFGGGTKLTVP
For the molecule B7, the results for the “median fluorescence intensity, fold over isotype control” value in assay [13] and in [14] were 7.49 fold over isotype and 33 fold over isotype, respectively.
